Assay results from publication PMC7585203.

Biological target: FAM-LIG1(118–130)K126me2 peptide (human)
Assay: fluorescence polarisation; FAM-labelled peptide with GST-tagged domains or MBP-tagged full-length UHRF1; as described in ref. 4, plotted as change in anisotropy

ratio of its dissociation constant to that of the UHRF1 TTD: 70 fold
Substance: GST-tagged chromodomain Y-like protein isoform 2 (CDYL1b) chromodomain (domain or fragment)
